Experimental data taken from patent US20210087281A1 (AGOMAB THERAPEUTICS, published 2021).
Blank lines part the entries; values can stand above or below the binder they belong to.

Tests used:
[1] = biological target: T1, native mouse MET on living cells (mouse, UniProt P16056 25-1379); assay: flow cytometry, MLP29 cells
T1 construct: whole, on cells; also called Mouse cells (MLP29); mouse epithelial cells expressing MET
How it was run: (§1)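 Detection used a phycoerythrin-labelled anti-human IgG1 secondary and flow cytometry, measuring binding of chimeric antibodies to native MET on live A549 (human) or MLP29 (mouse) cells. Positive controls were a mouse anti-human MET and a goat anti-mouse MET antibody, each with a PE-labelled secondary.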

[2] = biological target: T2, mouse MET-Fc (R&D Systems) (mouse, UniProt P16056 25-929, limits assumed); assay: competition ELISA, mMET-Fc in solid phase, competitor 0.3 nM biotinylated mHGF
T2 construct: bought chimeric protein; also called mMET; not shown: Fc part
How it was run: (§2)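 Values are IC₅₀, the antibody level reaching half-maximal competition, and IMAX, the highest percent competition at saturation. Each antibody was added from 0 to 120 nM alongside HGF labelled at the N-terminus with NHS-LC-biotin, on immobilized MET-Fc.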

[3] = biological target: T3, native human MET on living cells (human, UniProt P08581 25-1390); assay: cell-based or functional assay
T3 sequence (P08581 25-1390): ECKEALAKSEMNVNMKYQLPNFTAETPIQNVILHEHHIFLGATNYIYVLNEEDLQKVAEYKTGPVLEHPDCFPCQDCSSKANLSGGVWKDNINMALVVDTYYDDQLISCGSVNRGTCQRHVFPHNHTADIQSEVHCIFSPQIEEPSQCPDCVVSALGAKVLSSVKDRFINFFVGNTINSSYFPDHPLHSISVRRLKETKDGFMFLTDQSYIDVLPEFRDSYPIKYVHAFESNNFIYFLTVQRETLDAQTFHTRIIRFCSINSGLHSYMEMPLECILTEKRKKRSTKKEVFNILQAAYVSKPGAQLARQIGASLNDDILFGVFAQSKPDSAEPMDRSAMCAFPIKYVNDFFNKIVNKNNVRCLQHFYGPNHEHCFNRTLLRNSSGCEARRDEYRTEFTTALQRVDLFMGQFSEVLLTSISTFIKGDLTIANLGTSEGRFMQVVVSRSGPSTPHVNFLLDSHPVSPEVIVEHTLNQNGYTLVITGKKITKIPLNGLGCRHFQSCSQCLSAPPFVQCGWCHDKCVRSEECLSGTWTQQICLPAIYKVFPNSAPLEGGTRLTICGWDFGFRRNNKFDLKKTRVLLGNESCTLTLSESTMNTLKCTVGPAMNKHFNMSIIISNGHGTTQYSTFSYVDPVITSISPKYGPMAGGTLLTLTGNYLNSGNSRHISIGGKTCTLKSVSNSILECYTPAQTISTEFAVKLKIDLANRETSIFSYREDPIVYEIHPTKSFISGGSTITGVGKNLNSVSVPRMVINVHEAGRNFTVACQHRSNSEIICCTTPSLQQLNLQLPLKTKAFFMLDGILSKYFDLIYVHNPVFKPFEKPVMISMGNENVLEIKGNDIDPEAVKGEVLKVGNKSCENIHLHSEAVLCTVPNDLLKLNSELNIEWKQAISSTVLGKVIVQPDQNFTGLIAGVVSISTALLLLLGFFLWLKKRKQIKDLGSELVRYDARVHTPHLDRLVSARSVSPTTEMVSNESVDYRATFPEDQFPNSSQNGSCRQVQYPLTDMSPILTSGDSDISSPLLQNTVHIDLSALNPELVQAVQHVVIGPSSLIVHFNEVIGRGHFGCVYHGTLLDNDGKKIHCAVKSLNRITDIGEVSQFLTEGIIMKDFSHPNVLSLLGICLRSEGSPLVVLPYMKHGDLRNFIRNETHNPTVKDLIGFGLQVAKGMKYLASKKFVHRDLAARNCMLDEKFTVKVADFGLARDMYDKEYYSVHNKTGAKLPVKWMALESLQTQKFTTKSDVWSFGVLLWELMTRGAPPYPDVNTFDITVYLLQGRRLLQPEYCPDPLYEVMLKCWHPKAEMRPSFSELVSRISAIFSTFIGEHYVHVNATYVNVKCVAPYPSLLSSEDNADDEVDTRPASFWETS

[4] = biological target: T1, native mouse MET on living cells; assay: cell-based or functional assay
[5] = biological target: T3, native human MET on living cells; assay: cell-based or functional assay; remark: listed apart in the source
[6] = biological target: T1, native mouse MET on living cells; assay: cell-based or functional assay; remark: listed apart in the source
[7] = biological target: T4, human MET-Fc (R&D Systems) (human, UniProt P08581 25-932); assay: competition ELISA, hMET-Fc in solid phase, competitor 0.3 nM biotinylated hHGF
T4 construct: extracellular domain; bought chimeric protein; also called hMET; not shown: Fc portion of human IgG1
T4 sequence (P08581 25-932): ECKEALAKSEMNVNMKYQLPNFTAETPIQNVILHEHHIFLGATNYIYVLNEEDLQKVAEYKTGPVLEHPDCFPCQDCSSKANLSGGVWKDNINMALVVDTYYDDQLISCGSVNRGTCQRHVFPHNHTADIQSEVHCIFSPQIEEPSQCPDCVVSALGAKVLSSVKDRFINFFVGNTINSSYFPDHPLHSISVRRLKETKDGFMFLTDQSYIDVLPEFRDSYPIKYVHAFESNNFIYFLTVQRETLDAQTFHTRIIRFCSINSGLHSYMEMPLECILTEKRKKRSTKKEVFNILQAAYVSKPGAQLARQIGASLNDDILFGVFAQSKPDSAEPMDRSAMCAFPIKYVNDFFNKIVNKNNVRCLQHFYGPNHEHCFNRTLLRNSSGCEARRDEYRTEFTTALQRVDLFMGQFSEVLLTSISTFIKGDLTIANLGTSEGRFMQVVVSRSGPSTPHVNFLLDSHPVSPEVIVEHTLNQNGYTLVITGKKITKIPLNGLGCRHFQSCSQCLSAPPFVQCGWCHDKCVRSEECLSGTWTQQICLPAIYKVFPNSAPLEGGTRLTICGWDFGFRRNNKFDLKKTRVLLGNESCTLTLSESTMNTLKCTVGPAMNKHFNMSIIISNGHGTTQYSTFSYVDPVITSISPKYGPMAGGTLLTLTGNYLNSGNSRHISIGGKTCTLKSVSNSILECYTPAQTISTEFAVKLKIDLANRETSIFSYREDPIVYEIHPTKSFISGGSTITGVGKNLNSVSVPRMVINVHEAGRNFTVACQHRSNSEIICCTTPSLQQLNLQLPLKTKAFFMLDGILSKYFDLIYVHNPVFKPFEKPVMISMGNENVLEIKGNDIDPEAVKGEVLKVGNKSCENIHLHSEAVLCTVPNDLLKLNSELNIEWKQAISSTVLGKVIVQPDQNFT
How it was run: as §2

[8] = biological target: T3, native human MET on living cells; assay: flow cytometry, A549 cells
How it was run: as §1

[9] = biological target: T3, native human MET on living cells; assay: cell-based or functional assay; remark: listed apart in the source
[10] = biological target: T1, native mouse MET on living cells; assay: cell-based or functional assay; remark: listed apart in the source
[11] = biological target: T3, native human MET on living cells; assay: cell-based or functional assay; remark: listed apart in the source
[12] = biological target: T1, native mouse MET on living cells; assay: cell-based or functional assay; remark: listed apart in the source
[13] = biological target: human MET ECD mutant J (mutations 6, 7) (human) (UniProt P08581); assay: ELISA, MET ECD in solid phase, mAb 0-50 nM
[14] = biological target: human MET ECD mutant I (mutations 6, 7, 8) (human) (UniProt P08581); assay: ELISA, MET ECD in solid phase, mAb 0-50 nM
human MET ECD [15] = biological target: T5, human MET ECD (human, UniProt P08581 25-932); assay: ELISA, MET ECD in solid phase, mAb 0-20 nM
T5 construct: range 1-932; recombinant ECD made by the applicants; the stated range begins at residue 1, so it includes the signal peptide of the entry; also called hMET; hMET ECD
T5 sequence (P08581 25-932 limits assumed, form in doubt): as the sequence (P08581 25-932) above
How it was run: (§3)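 First, chimeric IgG1 (llama variable, human constant) was produced transiently in mammalian cells. Next, it was purified on protein A. Finally, graded antibody concentrations in solution were applied to plate-bound MET ECD and binding was read by ELISA.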

mouse MET ECD = biological target: T6, mouse MET ECD (mouse, UniProt P16056 25-931); assay: ELISA, MET ECD in solid phase, mAb 0-20 nM
T6 construct: range 1-931; recombinant ECD made by the applicants; the stated range begins at residue 1; also called mMET; mMET ECD
How it was run: as §3

human MET ECD [16] = biological target: T5, human MET ECD; assay: ELISA, MET ECD in solid phase, mAb 0-50 nM
Experimental: Using human MET as a template, we mutagenized each of these residues in different permutations, generating a series of MET mutants that are fully human except for specific residues, which are llama. Next, we tested the affinity of selected SEMA-binding mAbs (71D6, 71C3, 71D4, 71A3, 71G2) and PSI-binding mAbs (76H10 and 71G3) for these MET mutants by ELISA. To this end, the various MET proteins were immobilized in solid phase (100 ng/well in a 96-well plate) and then exposed to increasing concentrations of antibodies (0-50 nM) solution. […] Wild-type human MET was used as positive control.
TABLE 18 The epitopes of MET responsible for agonistic antibody binding represent residues conserved among H. sapiens, M. musculus, R. norvegicus, M. fascicularis but not among the same species and L. glama. The relevance of residues conserved among human, mouse, rat, cynomolgus monkey but not llama MET for binding to agonistic mAbs was tested by ELISA. Wild-type (WT) or mutant (MT) human MET ECD was immobilized in solid phase and exposed to increasing concentrations of mAbs in solution. […] All binding values were normalized to the WT protein and are expressed as % binding (EMAX) compared to WT MET.

[17] = biological target: human MET ECD mutant A (mutations 1, 2, 3) (human) (UniProt P08581); assay: ELISA, MET ECD in solid phase, mAb 0-50 nM
[18] = biological target: human MET ECD mutant H (mutations 2, 4) (human) (UniProt P08581); assay: ELISA, MET ECD in solid phase, mAb 0-50 nM
[19] = biological target: human MET ECD mutant E (mutations 2, 3, 4) (human) (UniProt P08581); assay: ELISA, MET ECD in solid phase, mAb 0-50 nM
[20] = biological target: human MET ECD mutant D (mutations 1, 2) (human) (UniProt P08581); assay: ELISA, MET ECD in solid phase, mAb 0-50 nM

EC50 [1]: 1.6 nM
EMAX [1]: 124 % relative to control
IC50 [2]: 2.01 nM
IMAX [2]: 62.7%
phospho-MET ELISA EC50, A549 cells [3]: 1.77 nM
phospho-MET ELISA EMAX (% HGF activity), A549 cells [3]: 61.2%
phospho-MET ELISA EC50, MLP29 cells [4]: 2.91 nM
phospho-MET ELISA EMAX (% HGF activity), MLP29 cells [4]: 64.1%
IC50 [7]: 1.86 nM
IMAX [7]: 64.2%
EC50 [8]: 2.35 nM
EMAX [8]: 130 % relative to control
scatter score 0-4, HPAF-II, 0.001 nM [9]: 0 score
scatter score 0-4, HPAF-II, 0.004 nM [9]: 0 score
scatter score 0-4, HPAF-II, 0.012 nM [9]: 0 score
scatter score 0-4, HPAF-II, 0.037 nM [9]: 0 score
scatter score 0-4, HPAF-II, 0.111 nM [9]: 0 score
scatter score 0-4, HPAF-II, 0.333 nM [9]: 0 score
scatter score 0-4, HPAF-II, 1.000 nM [9]: 1 score
scatter score 0-4, HPAF-II, 3.000 nM [9]: 2 score
scatter score 0-4, HPAF-II, 9.000 nM [9]: 3 score
scatter score 0-4, MLP29, 0.001 nM [10]: 0 score
scatter score 0-4, MLP29, 0.004 nM [10]: 0 score
scatter score 0-4, MLP29, 0.012 nM [10]: 0 score
scatter score 0-4, MLP29, 0.037 nM [10]: 0 score
scatter score 0-4, MLP29, 0.111 nM [10]: 0 score
scatter score 0-4, MLP29, 0.333 nM [10]: 0 score
scatter score 0-4, MLP29, 1.000 nM [10]: 1 score
scatter score 0-4, MLP29, 3.000 nM [10]: 2 score
scatter score 0-4, MLP29, 9.000 nM [10]: 3 score
branches per spheroid, LOC cells, 0.5 nM [11]: 7.3 branches
branches per spheroid, LOC cells, 2.5 nM [11]: 11.7 branches
branches per spheroid, LOC cells, 12.5 nM [11]: 16.7 branches
branches per spheroid, MLP29 cells, 0.5 nM [12]: 10.7 branches
branches per spheroid, MLP29 cells, 2.5 nM [12]: 14.3 branches
branches per spheroid, MLP29 cells, 12.5 nM [12]: 24.7 branches
% binding (EMAX) compared to WT MET [13]: 89 % WT MET ECD
% binding (EMAX) compared to WT MET [14]: 100 % WT MET ECD
EC50 (human MET ECD [15]): 0.09 nM
EMAX (OD450) (human MET ECD [15]): 2.67 AU
EC50 (mouse MET ECD): 0.062 nM
EMAX (OD450) (mouse MET ECD): 2.66 AU
B1: 76H10 chimeric llama-human IgG1 mAb (antibody, V domains shown)
VH: QLQLVESGGGLVQPGGSLRVSCTASGFTFNTYYMTWVRQAPGKGLEWVSDINSGGGTYYADSVKGRFTISRDNAKNTLYLQMNSLKPEDTALYYCVRVRIWPVGYDYWGQGTQVTVSS
VL: QAVVTQEPSLSVSPGGTVTLTCGLSSGSVTTSNYPGWFQQTPGQAPRTLIYNTNNRHSGVPSRFSGSISGNKAALTITGAQPEDEADYYCSLYTGSYTTVFGGGTHLTVL
notes: llama VH on human IgG1 CH1-CH2-CH3, llama VL on human lambda CL
protection from staurosporine, viability EC50, MCF10A cells [5]: > 32 nM
protection from staurosporine, viability EMAX, MCF10A cells [5]: 22.8%
protection from staurosporine, viability EC50, MLP29 cells [6]: > 32 nM
protection from staurosporine, viability EMAX, MLP29 cells [6]: 27.2%

EC50 [1]: 0.688 nM
EMAX [1]: 130 % relative to control
IC50 [2]: 0.26 nM
IMAX [2]: 91.9%
phospho-MET ELISA EC50, A549 cells [3]: 0.37 nM
phospho-MET ELISA EMAX (% HGF activity), A549 cells [3]: 101%
phospho-MET ELISA EC50, MLP29 cells [4]: 0.25 nM
phospho-MET ELISA EMAX (% HGF activity), MLP29 cells [4]: 110%
% binding (EMAX) compared to WT MET (human MET ECD [16]): 100 % WT MET ECD
IC50 [7]: 0.23 nM
IMAX [7]: 97.8%
EC50 [8]: 0.604 nM
EMAX [8]: 144 % relative to control
scatter score 0-4, HPAF-II, 0.001 nM [9]: 0 score
scatter score 0-4, HPAF-II, 0.004 nM [9]: 1 score
scatter score 0-4, HPAF-II, 0.012 nM [9]: 2 score
scatter score 0-4, HPAF-II, 0.037 nM [9]: 3 score
scatter score 0-4, HPAF-II, 0.111 nM [9]: 4 score
scatter score 0-4, HPAF-II, 0.333 nM [9]: 4 score
scatter score 0-4, HPAF-II, 1.000 nM [9]: 4 score
scatter score 0-4, HPAF-II, 3.000 nM [9]: 4 score
scatter score 0-4, HPAF-II, 9.000 nM [9]: 4 score
scatter score 0-4, MLP29, 0.001 nM [10]: 0 score
scatter score 0-4, MLP29, 0.004 nM [10]: 0 score
scatter score 0-4, MLP29, 0.012 nM [10]: 1 score
scatter score 0-4, MLP29, 0.037 nM [10]: 2 score
scatter score 0-4, MLP29, 0.111 nM [10]: 4 score
scatter score 0-4, MLP29, 0.333 nM [10]: 4 score
scatter score 0-4, MLP29, 1.000 nM [10]: 4 score
scatter score 0-4, MLP29, 3.000 nM [10]: 4 score
scatter score 0-4, MLP29, 9.000 nM [10]: 4 score
branches per spheroid, LOC cells, 0.5 nM [11]: 25.3 branches
branches per spheroid, LOC cells, 2.5 nM [11]: 29.3 branches
branches per spheroid, LOC cells, 12.5 nM [11]: 31.7 branches
branches per spheroid, MLP29 cells, 0.5 nM [12]: 34 branches
branches per spheroid, MLP29 cells, 2.5 nM [12]: 46.3 branches
branches per spheroid, MLP29 cells, 12.5 nM [12]: 45 branches
% binding (EMAX) compared to WT MET [17]: 92.1 % WT MET ECD
% binding (EMAX) compared to WT MET [18]: 40.2 % WT MET ECD
% binding (EMAX) compared to WT MET [19]: 41.4 % WT MET ECD
% binding (EMAX) compared to WT MET [20]: 114 % WT MET ECD
EC50 (human MET ECD [15]): 0.112 nM
EMAX (OD450) (human MET ECD [15]): 3.09 AU
EC50 (mouse MET ECD): 0.101 nM
EMAX (OD450) (mouse MET ECD): 3.17 AU
B2: 71G2 chimeric llama-human IgG1 mAb (antibody, V domains shown)
VH: EVQLQESGGGLVQPGGSLRLSCAASGFTFSIYDMSWVRQAPGKGLEWVSTINSDGSSTSYVDSVKGRFTISRDNAKNTLYLQMNSLKPEDTAVYYCAKVYGSTWDVGPMGYGMDYWGKGTLVTVSS
VL: SSALTQPSALSVSLGQTARITCQGGSLGSSYAHWYQQKPGQAPVLVIYGDDSRPSGIPERFSGSSSGGTATLTISGAQAEDEDDYYCQSTDSSGNTVFGGGTRLTVL
notes: as for B1
protection from staurosporine, viability EC50, MCF10A cells [5]: 1.06 nM
protection from staurosporine, viability EMAX, MCF10A cells [5]: 64.8%
protection from staurosporine, viability EC50, MLP29 cells [6]: 1.99 nM
protection from staurosporine, viability EMAX, MLP29 cells [6]: 58.3%
